According to patent US20170022269A1:

What was measured:
Aβ(1-40) monomer (human) = test: dot blot densitometry, antibody 0.2 µg/ml; column Aβ(1-40) monomer, 0.1% NaOH
Aβ(1-42) fibrils (human) [1] = target: Aβ(1-42) fibrils (human) (UniProt P05067); test: co-pelleting with Aβ(1-42) fibrils, SDS-PAGE, optical density of the heavy chain in pellet / (pellet + supernatant)
Aβ(1-42) fibrils (human) [2] = target: Aβ(1-42) fibrils (human) (UniProt P05067); test: dot blot densitometry, antibody 0.2 µg/ml; column Aβ(1-42) fibril

Aβ(1-42) fibrils (human), sequence (P05067 672-713): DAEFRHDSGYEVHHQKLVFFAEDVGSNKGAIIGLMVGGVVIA
Aβ(1-40) monomer (human), sequence (peptide, as listed by the source): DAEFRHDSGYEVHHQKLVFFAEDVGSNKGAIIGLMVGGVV

relation between recognition of Aβ(20-42) globulomer and the respective Aβ form (Aβ(1-40) monomer (human)): > 10000
antibody bound to fibrils [%] (Aβ(1-42) fibrils (human) [1]): 5%
relation between recognition of Aβ(20-42) globulomer and the respective Aβ form (Aβ(1-42) fibrils (human) [2]): > 10000
B1: monoclonal antibody 3B10 (antibody, part only; not given: light chain, V domains shown, part only)
VH: QVQLQQSGPELVKPGASVKMSCKASGYTFTDYVIHWVKQKPGQGLEWIGYINPYNDGTQYNEKFKGKATLTSDKSSSTVYMELSSLTSEDSTVYYCTVEGGTWDGYFDVWGTGTTVTVSS
